B1: Tumstatin-44-131: residues 44 to 131 of full-length Tumstatin (SEQ ID NO:33) (protein)
chain: FSFLFVQGNQRAHGQDLGTLGSCLQRFTTMPFLFCNVNDVCNFASRNDYSYWLSTPALMPMNMAPITGRALEPYISRCTVCEGPAIAI
modifications: Tumstatin-45-132 (amino acids 45-132 of SEQ ID NO10)
B2: Tum-4: residues 181 to 244 of Tumstatin (SEQ ID NO:25) (protein)
chain: EFRASPFLECHGRGTCNYYSNSYSFWLASLNPERMFRKPIPSTVKAGELEKIISRCQVCMKKRH
modifications: Tum-4 (amino acids 181-244 of SEQ ID NO10)
B3: Tumstatin: NC1 domain of the α3 chain of type IV collagen, residues 1-244 (SEQ ID NO:10) (protein, listed as Homo sapiens)
chain: GLKGKRGDSGSPATWTTRGFVFTRHSQTTAIPSCPEGTVPLYSGFSFLFVQGNQRAHGQDLGTLGSCLQRFTTMPFLFCNVNDVCNFASRNDYSYWLSTPALMPMNMAPITGRALEPYISRCTVCEGPAIAIAVHSQTTDIPPCPHGWISLWKGFSFIMFTSAGSEGTGQALASPGSCLEEFRASPFLECHGRGTCNYYSNSYSFWLASLNPERMFRKPIPSTVKAGELEKIISRCQVCMKKRH
B4: Tum-1: residues 54 to 244 of Tumstatin, lacking the N-terminal 53 amino acids (SEQ ID NO:22) (protein)
chain: QRAHGQDLGTLGSCLQRFTTMPFLFCNVNDVCNFASRNDYSYWLSTPALMPMNMAPITGRALEPYISRCTVCEGPAIAIAVHSQTTDIPPCPHGWISLWKGFSFIMFTSAGSEGTGQALASPGSCLEEFRASPFLECHGRGTCNYYSNSYSFWLASLNPERMFRKPIPSTVKAGELEKIISRCQVCMKKRH
modifications: Tum-1 (Tumstatin N-53) (amino acids 54-244 of SEQ ID NO10)
B5: Tum-2: residues 1 to 132 of Tumstatin (SEQ ID NO:23) (protein)
chain: GLKGKRGDSGSPATWTTRGFVFTRHSQTTAIPSCPEGTVPLYSGFSFLFVQGNQRAHGQDLGTLGSCLQRFTTMPFLFCNVNDVCNFASRNDYSYWLSTPALMPMNMAPITGRALEPYISRCTVCEGPAIAI
modifications: Tum-2 (amino acids 1-132 of SEQ ID NO10)

Assays:
C-PAE cells [1] = experiment: MTT cell viability assay; type: cell-based, bovine
Method: The pro-apoptotic activity of Tumstatin N-53 was examined in C-PAE cells. Cell viability was assessed by MTT (3-(4,5-dimethylthiazol-2-yl)-2-,5-diphenyl tetrasolium bromide) assay (Sugiyama, H. et al., 1998, Kidney Int. 54:1188-96). This assay is a quantitative calorimetric analysis for cell survival based on the ability of living cells to cleave the tetrasolium ring in active mitochondria. C-PAE cells (7,000 cells perwell) were plated to a 96-well plate in 10% FCS containing DMEM. The next day, either TNF-α (positive control, 80 ng/ml), or varying concentrations of Tumstatin or Tumstatin N-53 was added to the wells and incubated for 24 hours. MTT solution (5 mg/ml; CHEMICON International, Temecula, Calif., USA) was then added to the wells at a rate of 10 μl/well and incubated at 37° C. for 4 hours. Acid-isopropanol was added and mixed thoroughly. The absorbance was measured in a microplate reader (Bio-Rad, Hercules, Calif., USA) at 590 nm.
The MTT assay was used to evaluate cell viability in C-PAE endothelial cells and WM-164 melanoma cells after treatment with Tumstatin, Tum-1, Tum-2, Tum-3 and Tum-4. The results are shown in FIGS. 34A and 34B, which are a pair of graphs showing the effect of increasing concentration (x-axis) of Tumstatin, Tum-1, Tum-2, Tum-3 and Tum-4 on the cell viability (y-axis) of C-PAE cells (FIG. 34A) and WM-164 cells (FIG. 34B). Each point represents the mean ±the standard error of the mean for triplicate wells.
To further evaluate the mechanism of T3 peptide on endothelial cell proliferation, the effect of T3 peptide on cell cycle progression was analyzed. In the growth arrested and contact inhibited cells (0 hour), 4.1% of cells were in S phase. […] This was true even at a maximal dosage of 100 μg/ml. The effect of the T3 peptide was dose-dependent, however, with the percentage of cells in S phase at 21.4% at 10 μg/ml, and 20.5% at 25 μg/ml. The percentage of cells in G0/G1 phase was 88.3% at 0 hour, 53.4% for the bFGF control, and 57.6%, 57.6% and 71.0% for treatments with T1, T6 and T3 peptide, respectively. […] Apoptotic Activity: Peptides T2, T3, T4, T5 and T6 (10 μg/ml concentration) were tested for their effect of viability of C-PAE cells using the MTT assay, as described in Examples 32 and 36 above. The results are shown in FIG. 43D, which is a histogram showing cell viability as measured at OD595 (y-axis), and treatments with the synthetic peptides (x-axis). […] TNF-α (100 ng/ml) was used to serve as a positive control in inducing endothelial cell apoptosis.
Cell viability was measured by MTT assay, as described above.

C-PAE cells [2] = experiment: Cell attachment assay; type: cell-based, bovine
Method: The attachment of HUVECs to Tumstatin-coated plates in the presence of integrin subunits α1 through α6, β1, and αvβ3 integrin blocking antibody was examined. This assay was performed according to the method of Senger et al. (Senger, D. R. et al, 1997, Proc. Natl. Acad. Sci. USA 94:13612-7), with minor modification. 96-well plates were coated with either human Tumstatin, mouse laminin-1, or human Type IV collagen (Collaborative Biomedical Prods., Bedford, Mass., USA) at a concentration of 10 μg/ml overnight at 37° C. Vitronectin (Collaborative Biomed. Prods.) at a concentration of 0.5 μg/ml was then used to coat the plates. The remaining protein binding sites were blocked with 100 mg/ml of BSA (Sigma Chemical Co., St. Louis, Mo., USA) in PBS for 2 hours. HUVEC cells were grown to subconfluence (70-80%) in EGM-2 medium, gently trypsinized and resuspended in serum-free medium (1.5×10^5 cells/ml). The cells were mixed with 10 μg/ml of either mouse IgG, (control) (Life Technologies/Gibco BRL, Gaithersberg, Md., USA) or antibody (mouse monoclonal antibody to the human β1 integrin (clone P4C10) (Life Technologies/Gibco BRL); monoclonal antibody to human integrins α1 through α.6 (CHEMICON Int'l, Temecula, Calif., USA); αvβ3 integrin (clone LM609) (CHEMICON Int'l) and incubated for 15 minutes at room temperature, with gentle agitation. One hundred microliters of the cell suspension was then added to each well and incubated for 45 minutes at 37° C. Unattached cells were removed by washing, and the number of attached cells were counted after staining with methylene blue. C-PAE cells were used in separate experiments, following the above procedure.
To determine the attachment of C-PAE cells to plates coated with the Tumstatin deletion mutants, the cell attachment assay was performed as described above (see, e.g., Example 28). Rabbit antibody raised against Tum-4 was prepared as previously described (Kalluri et al., 1997, J. Clin. Invest. 99:2470-8). Goat anti-rabbit IgG antibody conjugated with horseradish peroxidase was purchased from Sigma Chemical Company (St. Louis, Mo., USA). […] Plates coated with Tum-1 (FIG. 36A) were also treated with anti-Tum-4 antibody (1:200 dilution) to block the previously reported (Shahan et al, 1999, Cancer Res. 59:4584-90) αvβ3 binding site, as well as the αvβ5 binding site.
Cell Attachment Activity: Cell attachment using endothelial cells was performed as described above. HUVEC or C-PAE cells were incubated with monoclonal anti-human integrin antibodies, control mouse IgG (10 μg/ml), or synthetic peptide, plated onto pre-coated 96-well plates, and the number of cells attaching to the plates was determined using measurement of methylene blue staining at OD655. […] CNGRC peptide was used as a control.
The cell attachment assay was performed as described above.
Tumstatin produced in 293 human embryonic kidney cells was used to coat tissue culture plates. […] PBS and BSA served as positive and negative controls, respectively.

Molecule | effect on cell viability (C-PAE cells [1]) | inhibition of attachment of C-PAE cells to coated plates by αvβ3 antibody (C-PAE cells [2]; label = plate coating) [%] | inhibition of binding of C-PAE cells to coated plates by αvβ5 antibody (C-PAE cells [2]; label = plate coating) | decrease of cell viability (C-PAE cells [1]; 5 μg/ml, 24 hours) [%] | also measured
LQRFTTMPFLFCNVNDVCNF [T3] | significantly decrease cell viability | – | – | – | attachment to T3-coated plates with anti-αv or anti-β1 integrin antibody (C-PAE cells [2]): did not inhibit; attachment to T3 peptide-coated plates with anti-β3 integrin antibody (C-PAE cells [2]): inhibited by a preincubation with anti-β3 integrin antibody; inhibition of cell attachment to Tum-4-coated plates by peptide (C-PAE cells [2]): failed to inhibit; inhibition of cell attachment onto Tum-5-coated plates by peptide (C-PAE cells [2]; 2.5 μg/ml peptide): significantly inhibited; inhibition of cell attachment to Tumstatin-coated plates by peptide (C-PAE cells [2]; 10 μg/ml peptide, 293-produced Tumstatin coating): 46.4%; binding to vitronectin-coated plates (2.5 μg/ml) in the presence of peptide (C-PAE cells [2]; 0.1, 1.0, 10.0 μg/ml peptide): not inhibited
B1 | – | – | – | – | ED50, decrease of cell viability (C-PAE cells [1]): 12 µg/mL; attachment to coated plates in the presence of RGD peptide (CDCRGDCFC) (C-PAE cells [2]; label = plate coating): not inhibited
B2 | – | 62.6 | not inhibited | – | –
B3 | – | – | – | 22.5 | decrease of cell viability (C-PAE cells [1]; 10 μg/ml): 60%
B4 | decreases cell viability in a dose-dependent manner | 55.9 | not inhibited | 49.4 | –
B5 | – | 69.8 | not inhibited | – | –
